For experiment [1], the target named is HER2 on the surface of N87 (NCI-N87) human gastric carcinoma cells (human) (UniProt P04626). The experiment can be described thus: cell-based or functional assay.
The target in experiment [2] is HER2-ECD (human epidermal growth factor receptor 2-extracellular domain) (human) (UniProt P04626).

What is called EC50 is the concentration that produces a half-maximal response.

For the substance “IgG1(trastuzumab)-AL1-PE38KDEL (antibody)”, the IC50 (pM), cytotoxicity on N87 cells (WST-1) in experiment [1] stood at 498 pM. In the case of scFv(trastuzumab)-PE38KDEL, in experiment [2], the EC50 came out at 0.15 nM.
